Measurements reported in patent publication US20230190701A1, “Compounds for Treating Tauopathies and Restless Leg Syndrome and Methods of Using and Screening for Same” (The United States Government as Represented, priority 2020, published 2023).

Columns and labels:
Assay type in all cases: biochemical
human PTPRD phosphatase = target: T1, human PTPRD phosphatase (Homo sapiens, UniProt P23468); assay: pNPP dephosphorylation to p-nitrophenolate (405 nm); conditions: FIG. 4; peptide 4×10^−4 M, pNPP 1.8×10^−5M
T1 construct: His6 (N); made in house; host or cells: E. coli (vector optimized for E. coli codon use)
T1 sequence (P23468 with tags, fused parts or gaps): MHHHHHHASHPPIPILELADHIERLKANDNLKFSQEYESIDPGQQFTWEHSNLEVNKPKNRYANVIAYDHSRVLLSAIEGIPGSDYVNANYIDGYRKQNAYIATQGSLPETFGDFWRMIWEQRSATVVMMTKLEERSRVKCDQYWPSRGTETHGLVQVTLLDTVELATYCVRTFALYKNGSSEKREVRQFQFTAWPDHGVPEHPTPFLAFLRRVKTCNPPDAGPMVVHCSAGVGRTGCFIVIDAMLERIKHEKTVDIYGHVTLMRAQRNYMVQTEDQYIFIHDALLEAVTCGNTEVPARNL
Description: pNPP dephosphorylation to p-nitrophenolate: Triplicate assays were used for human PTPRD phosphatase, pNPP substrate and spectrophotometric 405 nm detection of the dephosphorylation product of these enzyme's activities using a Spectromax plate reader. Controls used 5×10^−5M 7-BIA with 18 min incubations as described. See G. R. Uhl et al., “Cocaine reward is reduced by decreased expression of receptor-type protein tyrosine phosphatase D (PTPRD) and by a novel PTPRD antagonist.” Proc Natl Acad Sci USA 115, 11597-11602 (2018). For assays determining the effect of flavonoids on pNPP hydrolysis, a 96 well half-area plate was prepared by first filling each well to be tested with 18 μL of 50 μM pNPP and 25 μL of running buffer (43.4 μM HEPES (pH 7.4), 2.2 μM dithiothreitol, 0.44% acetylated bovine serum albumin, 22.2 μM NaCl, 4.4 μM EDTA), and 2 μL of DMSO containing the desired concentration of flavonoid and/or peptide. PTPRD1 was diluted 1:50 in a dilution buffer (22.9 μM pH 7.4 HEPES, 1% acetylated bovine serum albumin, 4.6 μM dithiothreitol). At the zero time point, 5 uL of this solution was added to each well, and the optical density was measured in 36 second intervals at 405 nm. Results were plotted and the slopes of the linear region were fit. All experiments were performed three times with three wells dedicated to each experimental condition in each experiment.

[1] = target: T2, PTPRD D1 phosphatase (SEQ ID NO: 1) (Homo sapiens, UniProt P23468); assay: Orthophosphate release assay (malachite green/molybdate) with phosphopeptide substrates; conditions: peptide as substrate; FIG. 1
T2 construct: His6 (N); made in house; host or cells: E. coli (vector optimized for E. coli codon use)
T2 sequence (P23468 with tags, fused parts or gaps): T1 sequence (P23468 with tags, fused parts or gaps)

[2] = target: T2, PTPRD D1 phosphatase (SEQ ID NO: 1); assay: as above; conditions: for normalized rates of liberation of orthophosphate from pY15CDK5 alanine substitution mutants vs wildtype: FIG. 5, Glu-substitution mutants (1, 4, 6) reductions, Lys-substitution mutants (2, 7) increases; for PTPRD's activity in dephosphorylating CDK5 phosphopeptide (positive allosteric modulation): pY15 CDK5 phosphopeptide, flavonoid 10^−4 M (FIG. 7); for PTPRD's activity in dephosphorylating CDK5 phosphopeptide (positive allosteric modulation) / PTPRD's activity in dephosphorylating GSK3 phosphopeptide (positive allosteric modulation): vs vehicle; for PTPRD's activity in dephosphorylating GSK3 phosphopeptide (positive allosteric modulation): pYGSK3 phosphopeptide, flavonoid 10^−4 M (FIG. 8)
Excerpt: The following examples utilized phosphatase protein produced from a His-tagged D1 phosphatase domain synthesized expression vector optimized for E. coli codon use (SEQ ID NO: 1). This protein was purified to >95% purity and was active in hydrolyzing pNPP substrate (FIG. 1). Human wildtype and mutant phospho- and dephospho-GSK3β/GSK3α and CDK5 peptides were synthesized (Pierce/ThermoFisher, SEQ ID NOs: 2-12) and control END(pY)INASL peptide (Promega, SEQ ID NO: 13) was purchased. Flavonoids were purchased from Thermo-Fisher, Aldrich, Cayman Chemical and AK Scientific. Purities were >95%.
Orthophosphate release assays (Promega V2471) used Malachite green and molybdate with spectrophotometric detection of liberated free orthophosphate from test phosphopeptides compared to control and mutant peptides with assessments for the times indicated. Reactions were carried out in a half-area 96-well plate, with three wells dedicated for each time point. To each experimental well, we added a mixture of 18 μL of ultrapure water, 25 μL of running buffer, 1 μL of a 10 mM DMSO solution of the desired peptide, and 1 μL of DMSO containing a desired concentration of flavonoid, or 1 μL DMSO for control experiments. The supplied molybdate dye mixture (50 μL) was added at t=0, followed by 5 μL of a 1:100 dilution of enzyme in the aforementioned dilution buffer. Other wells were initiated via the addition of 5 μL of the diluted enzyme mixture@t=0 and terminated at the desired timepoints by addition of 50 μL of the dye solution. Wells were read@605 nm.

| Compound | competition for PTPRD phosphatase's hydrolysis of pNPP (human PTPRD phosphatase) | normalized rates of liberation of orthophosphate from pY15CDK5 alanine substitution mutants vs wildtype [2] | PTPRD's activity in dephosphorylating CDK5 phosphopeptide (positive allosteric modulation) [2] | PTPRD's activity in dephosphorylating GSK3 phosphopeptide (positive allosteric modulation) [2] | other results |
| --- | --- | --- | --- | --- | --- |
| QLVRGEPNVSYICSRYYRAPE (QLVRGEPNVSSYICSRYYRAPE) [dephospho GSK3β, GSK3α peptide, GSK3β/α wildtype dephosphopeptide] | inactive |  |  |  |  |
| YEKLEKIGEGT-pY-GTVFKAKN [CDK5 phosphopeptide] | competes |  |  |  | liberation of orthophosphate from phosphopeptide by PTPRD's phosphatase [1]: rates similar to those found for the generic positive control substrate |
| YEKLEKIGAGT-pY-GTVFKAKN [mutant 1] |  | trends |  |  |  |
| O=c1c(O)c(-c2ccc(O)c(O)c2)oc2cc(O)cc(O)c12 [quercetin] |  |  | increased | increased | stimulation of orthophosphate liberation from phosphopeptides by PTPRD phosphatase, dose-response ([2]; FIG. 9, pYGSK3 and pYCDK5 phosphopeptides): active at micromolar concentrations |
| YEALEAIGEGT-pY-GTVFKAKN [mutant 7] |  | nominally-significant increases in activity |  |  |  |
| YEKLEKIGEGTYGTVFKAKN [dephospho CDK5 peptide, CDK5 wildtype dephosphopeptide] | inactive |  |  |  |  |
| YAKLAKIGAGT-pY-GTVFKAKN [mutant 6] |  | nominally-significant (6) reductions in activity |  |  |  |
| O=c1c(O)c(-c2ccc(O)cc2O)oc2cc(O)cc(O)c12 [morin] |  |  | trend-level | significant |  |
| O=c1c(O)c(-c2ccc(O)c(O)c2)oc2cc(O)ccc12 [fisetin] |  |  | trend-level | significant |  |
| YEKLEAIGEGT-pY-GTVFKAKN [mutant 2] |  | nominally-significant increases in activity |  |  |  |
| QLVRGEPNVS-pY-ICSRYYRAPE [GSK3 phosphopeptide] | competes |  |  |  | liberation of orthophosphate from phosphopeptide by PTPRD's phosphatase [1]: substantial liberation of orthophosphate |
| O=c1c(O)c(-c2cc(O)c(O)c(O)c2)oc2cc(O)cc(O)c12 [myricetin] |  |  | trend-level | significant |  |
| YEALEKIGEGT-pY-GTVFKAKN [mutant 4] |  | trends |  |  |  |
